Publication PMC7652416

Tests used:
[1] = target: ClpX^ΔN (residues 62–424) T199S mutant (E. coli) (UniProt P0A6H1)
[2] = target: ClpX^ΔN (residues 62–424) T199V mutant (E. coli) (UniProt P0A6H1)
[3] = target: E. coli ClpX^∆N (residues 62–424) (E. coli) (UniProt P0A6H1)

GFP-ssrA
KM of GFP-ssrA degradation by ClpX^∆N variant/ClpP (Michaelis-Menten fit) [1]: 6.3 µM | KM of GFP-ssrA degradation by ClpX^∆N variant/ClpP (Michaelis-Menten fit) [2]: 89 µM | KM of GFP-ssrA degradation by ClpX^∆N/ClpP (Michaelis-Menten fit) [3]: 1.3 µM
